Results published in the supplement of paper PMC10065799, “High-throughput profiling of sequence recognition by tyrosine kinases and SH2 domains using bacterial peptide display” (eLife, 2023).

How the values were obtained:
SHP2-C SH2 = assay: SH2 binding enrichment of the phosphorylated peptide, bacterial display (enrichment ratio); higher = better substrate or ligand; peptides without Tyr show the background
Grb2 SH2 = Grb2 SH2 (UniProt P62993); assay: as above
c-Src SH2 = assay: as above
c-Src = assay: phosphorylation enrichment, bacterial display (enrichment ratio); higher = better substrate or ligand; peptides without Tyr show the background
AncSZ = assay: as above
EPHB1 = EPHB1 (UniProt P54762); assay: as above
EPHB2 = EPHB2 (UniProt P29323); assay: as above
EPHB2, sequence (P29323 whole entry, looked up): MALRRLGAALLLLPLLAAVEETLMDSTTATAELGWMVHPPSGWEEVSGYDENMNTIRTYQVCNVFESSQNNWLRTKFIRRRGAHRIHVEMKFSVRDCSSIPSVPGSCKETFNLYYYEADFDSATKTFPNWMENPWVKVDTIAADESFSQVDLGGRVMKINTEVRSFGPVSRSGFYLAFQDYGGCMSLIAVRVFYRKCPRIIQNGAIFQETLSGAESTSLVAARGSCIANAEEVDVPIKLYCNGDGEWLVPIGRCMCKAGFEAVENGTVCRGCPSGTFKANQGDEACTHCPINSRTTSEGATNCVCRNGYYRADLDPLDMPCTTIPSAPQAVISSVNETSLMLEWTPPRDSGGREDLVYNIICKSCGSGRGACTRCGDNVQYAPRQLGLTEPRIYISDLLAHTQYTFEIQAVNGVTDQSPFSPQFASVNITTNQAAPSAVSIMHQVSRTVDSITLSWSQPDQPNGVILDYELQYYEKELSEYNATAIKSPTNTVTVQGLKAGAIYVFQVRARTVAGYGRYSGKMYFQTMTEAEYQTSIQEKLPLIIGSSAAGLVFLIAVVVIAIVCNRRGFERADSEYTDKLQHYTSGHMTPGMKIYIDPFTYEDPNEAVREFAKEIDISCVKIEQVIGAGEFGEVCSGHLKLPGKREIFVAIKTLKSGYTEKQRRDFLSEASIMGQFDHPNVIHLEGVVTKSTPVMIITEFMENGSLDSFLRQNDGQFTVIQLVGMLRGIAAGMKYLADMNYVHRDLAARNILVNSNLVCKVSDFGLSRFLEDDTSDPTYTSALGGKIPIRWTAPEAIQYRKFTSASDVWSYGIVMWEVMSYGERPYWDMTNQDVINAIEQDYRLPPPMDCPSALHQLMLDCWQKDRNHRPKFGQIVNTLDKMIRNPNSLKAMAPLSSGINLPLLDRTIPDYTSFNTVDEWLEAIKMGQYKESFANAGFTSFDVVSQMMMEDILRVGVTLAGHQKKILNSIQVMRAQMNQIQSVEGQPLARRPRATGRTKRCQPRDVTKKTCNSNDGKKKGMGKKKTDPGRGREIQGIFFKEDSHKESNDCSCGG

FGFR3 = FGFR3 (UniProt P22607); assay: as above
FGFR3, sequence (P22607 whole entry, looked up): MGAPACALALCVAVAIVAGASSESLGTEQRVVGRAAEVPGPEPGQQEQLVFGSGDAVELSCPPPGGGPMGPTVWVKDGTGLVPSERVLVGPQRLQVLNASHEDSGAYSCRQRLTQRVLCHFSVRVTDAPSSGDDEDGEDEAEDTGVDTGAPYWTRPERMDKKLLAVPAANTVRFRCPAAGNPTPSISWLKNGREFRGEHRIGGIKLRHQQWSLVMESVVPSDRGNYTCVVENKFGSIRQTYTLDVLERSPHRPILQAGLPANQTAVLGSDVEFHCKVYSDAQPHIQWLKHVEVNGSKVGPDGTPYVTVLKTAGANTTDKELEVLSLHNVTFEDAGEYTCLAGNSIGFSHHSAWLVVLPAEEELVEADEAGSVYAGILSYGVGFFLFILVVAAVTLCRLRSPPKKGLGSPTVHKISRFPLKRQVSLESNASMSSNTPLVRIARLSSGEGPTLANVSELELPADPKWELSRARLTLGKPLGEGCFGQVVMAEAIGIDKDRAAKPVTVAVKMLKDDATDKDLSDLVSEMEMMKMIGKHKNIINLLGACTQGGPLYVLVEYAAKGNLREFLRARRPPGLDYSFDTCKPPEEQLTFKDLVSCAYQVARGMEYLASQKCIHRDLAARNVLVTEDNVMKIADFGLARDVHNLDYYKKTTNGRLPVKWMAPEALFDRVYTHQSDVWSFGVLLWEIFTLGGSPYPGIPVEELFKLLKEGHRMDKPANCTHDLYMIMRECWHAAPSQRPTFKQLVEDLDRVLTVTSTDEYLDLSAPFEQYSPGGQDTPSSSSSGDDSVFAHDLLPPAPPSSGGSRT

Jak2 = Jak2 (UniProt O60674); assay: as above
Jak2, sequence (O60674 whole entry, looked up): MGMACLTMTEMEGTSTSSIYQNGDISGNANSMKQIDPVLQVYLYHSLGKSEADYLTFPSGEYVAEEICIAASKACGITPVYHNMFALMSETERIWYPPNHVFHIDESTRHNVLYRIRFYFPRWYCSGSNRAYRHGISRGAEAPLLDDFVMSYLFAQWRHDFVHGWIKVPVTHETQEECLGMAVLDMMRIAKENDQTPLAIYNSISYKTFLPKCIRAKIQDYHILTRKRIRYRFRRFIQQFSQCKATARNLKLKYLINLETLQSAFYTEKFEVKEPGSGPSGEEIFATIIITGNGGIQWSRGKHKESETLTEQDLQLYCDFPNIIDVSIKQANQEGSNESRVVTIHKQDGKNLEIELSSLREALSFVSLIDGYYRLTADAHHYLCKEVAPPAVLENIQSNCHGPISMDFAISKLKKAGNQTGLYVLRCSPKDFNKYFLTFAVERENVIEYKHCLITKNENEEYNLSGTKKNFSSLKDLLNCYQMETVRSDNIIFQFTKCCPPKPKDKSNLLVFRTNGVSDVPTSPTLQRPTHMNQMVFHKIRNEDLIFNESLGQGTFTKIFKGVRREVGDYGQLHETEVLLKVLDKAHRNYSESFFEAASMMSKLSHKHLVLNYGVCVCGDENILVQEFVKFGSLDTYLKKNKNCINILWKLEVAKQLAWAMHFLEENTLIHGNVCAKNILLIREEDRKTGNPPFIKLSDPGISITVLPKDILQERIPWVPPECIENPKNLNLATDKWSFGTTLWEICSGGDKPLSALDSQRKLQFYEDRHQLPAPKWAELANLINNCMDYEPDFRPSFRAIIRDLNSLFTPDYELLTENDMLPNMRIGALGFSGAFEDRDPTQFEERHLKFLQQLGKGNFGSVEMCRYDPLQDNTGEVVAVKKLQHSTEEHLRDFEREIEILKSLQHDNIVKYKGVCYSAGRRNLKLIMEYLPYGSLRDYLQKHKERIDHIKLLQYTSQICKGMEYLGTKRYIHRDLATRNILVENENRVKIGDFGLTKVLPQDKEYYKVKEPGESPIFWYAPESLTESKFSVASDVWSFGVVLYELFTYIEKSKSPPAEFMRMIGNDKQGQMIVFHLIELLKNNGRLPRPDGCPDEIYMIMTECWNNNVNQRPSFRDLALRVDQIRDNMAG

Fes = Fes (UniProt P07332); assay: as above
Hck = Hck (UniProt P08631); assay: as above
MERTK = MERTK (UniProt Q12866); assay: as above
MERTK, sequence (Q12866 whole entry, looked up): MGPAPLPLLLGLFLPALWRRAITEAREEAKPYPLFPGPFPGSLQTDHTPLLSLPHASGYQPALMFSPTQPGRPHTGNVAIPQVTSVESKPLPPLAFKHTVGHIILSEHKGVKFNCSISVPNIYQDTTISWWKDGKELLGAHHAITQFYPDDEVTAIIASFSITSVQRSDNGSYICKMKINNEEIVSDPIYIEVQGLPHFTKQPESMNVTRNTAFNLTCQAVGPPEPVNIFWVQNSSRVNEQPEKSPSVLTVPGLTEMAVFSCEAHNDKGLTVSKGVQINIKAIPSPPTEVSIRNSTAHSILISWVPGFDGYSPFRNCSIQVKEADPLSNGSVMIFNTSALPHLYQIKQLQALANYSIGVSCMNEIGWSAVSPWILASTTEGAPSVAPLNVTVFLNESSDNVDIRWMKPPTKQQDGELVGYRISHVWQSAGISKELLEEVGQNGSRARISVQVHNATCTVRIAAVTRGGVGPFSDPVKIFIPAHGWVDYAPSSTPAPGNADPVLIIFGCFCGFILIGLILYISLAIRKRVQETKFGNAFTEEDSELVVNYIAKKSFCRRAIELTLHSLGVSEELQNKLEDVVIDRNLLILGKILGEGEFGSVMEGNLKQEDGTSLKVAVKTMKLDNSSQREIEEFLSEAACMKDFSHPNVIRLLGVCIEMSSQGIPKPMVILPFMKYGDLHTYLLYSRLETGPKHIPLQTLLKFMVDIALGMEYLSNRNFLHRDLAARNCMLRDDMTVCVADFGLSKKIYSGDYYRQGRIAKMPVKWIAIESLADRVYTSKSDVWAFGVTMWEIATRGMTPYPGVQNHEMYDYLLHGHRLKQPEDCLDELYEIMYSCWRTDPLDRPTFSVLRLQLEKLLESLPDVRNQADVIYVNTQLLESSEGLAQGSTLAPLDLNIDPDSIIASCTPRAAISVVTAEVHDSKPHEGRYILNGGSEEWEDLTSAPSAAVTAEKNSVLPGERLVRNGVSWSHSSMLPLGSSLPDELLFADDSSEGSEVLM

c-Abl (mouse) = assay: as above
FGFR1 = FGFR1 (UniProt P11362); assay: as above
FGFR1, sequence (P11362 whole entry, looked up): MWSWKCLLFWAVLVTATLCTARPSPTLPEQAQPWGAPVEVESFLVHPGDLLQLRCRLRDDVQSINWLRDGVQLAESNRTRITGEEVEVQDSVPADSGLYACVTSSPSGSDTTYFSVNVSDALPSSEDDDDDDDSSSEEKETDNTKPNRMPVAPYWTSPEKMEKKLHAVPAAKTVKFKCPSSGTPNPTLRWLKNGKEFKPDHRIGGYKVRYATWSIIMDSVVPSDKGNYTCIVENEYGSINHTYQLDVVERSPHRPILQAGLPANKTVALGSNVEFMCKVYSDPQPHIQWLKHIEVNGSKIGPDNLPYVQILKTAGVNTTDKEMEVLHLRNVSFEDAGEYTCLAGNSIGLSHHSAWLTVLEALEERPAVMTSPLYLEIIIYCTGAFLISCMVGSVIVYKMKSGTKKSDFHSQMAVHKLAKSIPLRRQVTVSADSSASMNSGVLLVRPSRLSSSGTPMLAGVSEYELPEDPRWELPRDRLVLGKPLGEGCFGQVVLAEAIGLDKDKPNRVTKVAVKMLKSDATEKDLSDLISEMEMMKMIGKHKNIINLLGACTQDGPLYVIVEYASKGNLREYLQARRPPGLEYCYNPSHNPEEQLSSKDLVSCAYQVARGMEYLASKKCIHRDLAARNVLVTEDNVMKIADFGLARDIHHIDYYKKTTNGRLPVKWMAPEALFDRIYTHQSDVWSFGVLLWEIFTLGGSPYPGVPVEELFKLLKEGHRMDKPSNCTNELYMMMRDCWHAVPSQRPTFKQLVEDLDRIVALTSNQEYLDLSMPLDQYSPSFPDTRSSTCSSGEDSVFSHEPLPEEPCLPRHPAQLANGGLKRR

Fer (mouse) = assay: as above
Fyn = Fyn (UniProt P06241); assay: as above
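Wherever SH2 binding enrichment of the phosphorylated peptide, bacterial display is given: peptide library displayed on the E. coli surface as eCPX fusions, selected cells deep-sequenced, score is each peptide's frequency after selection divided by its frequency in the input.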
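Wherever phosphorylation enrichment, bacterial display is given: 11-residue human phosphosite peptides and single-mutation variants displayed on the E. coli surface, counted by deep sequencing, each peptide's frequency after selection divided by its frequency in the unselected input library; frequency after pTyr selection over input frequency; kinase dosed for 20-30% of maximal phosphorylation in three min.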

Sequence | SH2 binding enrichment (SHP2-C SH2) | SH2 binding enrichment (Grb2 SH2) | SH2 binding enrichment (c-Src SH2) | phosphorylation enrichment (c-Src) | phosphorylation enrichment (AncSZ) | phosphorylation enrichment (EPHB1) | phosphorylation enrichment (EPHB2) | phosphorylation enrichment (FGFR3) | phosphorylation enrichment (Jak2) | phosphorylation enrichment (Fes) | phosphorylation enrichment (Hck) | phosphorylation enrichment (MERTK) | phosphorylation enrichment (c-Abl (mouse)) | phosphorylation enrichment (FGFR1) | phosphorylation enrichment (Fer (mouse)) | phosphorylation enrichment (Fyn)
ASENVYVNIAH [CTSC_Y150] | 5.86 | 6.93 | 2.4 | 2.21 | 0.881 | 1.92 | 0.924 | 2.05 | 0.986 | 0.827 | 1.94 | 0.826 | 0.8 | 3.4 | 3.79 | 1.99
RTIPDYTSFNT [EPHB2_Y912] | 0.926 | 1.12 | 0.813 | 0.923 | 0.893 | 0.866 | 0.632 | 0.991 | 0.978 | 0.66 | 0.561 | 0.538 | 1.02 | 1.2 | 0.417 | 0.63
IEDNEYTAREG [HCK_Y411] | 0.666 | 0.803 | 0.539 | 0.67 | 1.56 | 0.637 | 0.491 | 0.759 | 1.33 | 1.33 | 0.588 | 0.519 | 1.08 | 0.722 | 0.515 | 0.576
RVDRDYVLKST [HTATIP2_Y111_A116T] | 0.843 | 1.01 | 0.436 | 0.388 | 0.961 | 0.492 | 0.659 | 0.529 | 0.436 | 0.823 | 0.578 | 0.487 | 0.369 | 0.526 | 0.511 | 0.65
AGRTGYDNREI [BCL2_Y9] | 0.718 | 0.779 | 0.504 | 0.537 | 0.779 | 0.392 | 0.394 | 0.509 | 0.848 | 0.955 | 0.367 | 0.429 | 0.974 | 0.461 | 0.5 | 0.427
PPVVNYEQDAR [FER_Y402_E404Q] | 0.826 | 0.879 | 0.728 | 0.646 | 1.33 | 1.01 | 0.534 | 1.29 | 1.49 | 1.18 | 0.628 | 0.541 | 0.767 | 0.69 | 0.679 | 0.636
AFGEVYEGQES [ALK_Y1131_V1135E] | 0.677 | 0.842 | 0.557 | 0.75 | 1.32 | 0.526 | 0.622 | 0.645 | 1.14 | 1.05 | 0.629 | 0.438 | 0.842 | 0.485 | 0.478 | 0.598
LNERHYGALIG [BPGM_Y92] | 0.74 | 0.871 | 0.613 | 0.639 | 0.534 | 0.319 | 0.469 | 0.47 | 0.571 | 0.609 | 0.561 | 0.536 | 0.461 | 0.42 | 0.459 | 0.514
HFGCVYRGTLL [MET_Y1093_H1094R] | 0.963 | 0.868 | 0.565 | 1.97 | 1.44 | 1.04 | 0.87 | 1.06 | 1.77 | 1.66 | 0.607 | 0.573 | 1.28 | 0.884 | 0.702 | 0.862
QRIHNYYEHRY [HCN4_Y554_D553N] | 2.06 | 1.71 | 1.7 | 0.769 | 1.36 | 2.91 | 2.88 | 3.62 | 0.724 | 1.63 | 1.33 | 1.62 | 0.791 | 3.79 | 0.65 | 0.68
ALEKTYNTFRS [B4GALNT2_Y538_YF] | 0.591 | 0.872 | 0.457 | 1.78 | 0.573 | 0.351 | 0.406 | 0.456 | 0.73 | 0.509 | 0.704 | 0.382 | 0.503 | 0.433 | 0.422 | 0.777
DIRAQYDELAR [KRT18_Y256] | 0.702 | 0.931 | 7.06 | 0.474 | 1.02 | 0.452 | 0.483 | 0.592 | 1.04 | 1.01 | 0.761 | 0.47 | 0.766 | 0.576 | 0.503 | 0.58
EYQLPYYNTVP [BMPR1A_Y457_M460T] | 0.872 | 9.47 | 6.88 | 5.66 | 4.46 | 0.966 | 1.19 | 5.15 | 5.82 | 1.05 | 1.93 | 2.31 | 2.54 | 7.09 | 1.94 | 1.42
AHLLQYNHQVK [LGALS3_Y221_R224Q] | 0.401 | 0.631 | 0.503 | 0.459 | 0.706 | 0.503 | 0.505 | 0.545 | 0.517 | 0.9 | 0.508 | 0.521 | 0.474 | 0.579 | 0.583 | 0.706
TFRPPYFHRDC [HGD_Y333_N337D_YF] | 0.741 | 1.18 | 0.93 | 0.558 | 0.617 | 0.432 | 0.431 | 2 | 0.685 | 0.847 | 0.454 | 0.424 | 0.587 | 0.496 | 0.422 | 0.427
RRKRAYVEIEY [MAK16_Y282_Q277R] | 0.938 | 1.32 | 0.37 | 0.999 | 1.37 | 1.02 | 1.06 | 1.18 | 1.54 | 1.21 | 1.13 | 1.22 | 1.04 | 0.731 | 0.996 | 0.667
IKGNMYYENSY [EGFR_Y112_R108K] | 0.713 | 6.83 | 4.57 | 0.54 | 0.746 | 0.469 | 0.583 | 0.641 | 0.591 | 0.874 | 0.462 | 0.946 | 0.632 | 0.535 | 0.609 | 0.503
KAIMTYVPSFY [ACTN4_Y260_S262P] | 1.03 | 0.818 | 1.15 | 0.472 | 0.67 | 0.413 | 0.63 | 0.509 | 0.639 | 0.646 | 0.425 | 0.439 | 0.803 | 0.378 | 0.415 | 0.52
DSNLIYSQIWS [FCRL3_Y662_P660L] | 0.951 | 0.754 | 0.538 | 7.08 | 2.1 | 15.2 | 17.1 | 6.79 | 2.46 | 12.2 | 9.1 | 10 | 15.4 | 7.38 | 15.7 | 9.04
GGQVFHNSEFG [FLT4_Y1333_Y1333H_YF] | 0.714 | 0.761 | 0.505 | 0.377 | 0.593 | 0.4 | 0.451 | 0.572 | 0.534 | 0.668 | 0.379 | 0.395 | 0.531 | 0.448 | 0.375 | 0.424
EVVGRYSVHNA [MLH1_Y183] | 0.597 | 0.668 | 0.42 | 0.497 | 0.633 | 0.437 | 0.451 | 0.513 | 0.698 | 0.717 | 0.488 | 0.421 | 0.589 | 0.457 | 0.405 | 0.487

Further lines, with some results ahead:

SH2 binding enrichment (SHP2-C SH2) | SH2 binding enrichment (Grb2 SH2) | SH2 binding enrichment (c-Src SH2) | Sequence | phosphorylation enrichment (c-Src) | phosphorylation enrichment (AncSZ) | phosphorylation enrichment (EPHB1) | phosphorylation enrichment (EPHB2) | phosphorylation enrichment (FGFR3) | phosphorylation enrichment (Jak2) | phosphorylation enrichment (Fes) | phosphorylation enrichment (Hck) | phosphorylation enrichment (MERTK) | phosphorylation enrichment (c-Abl (mouse)) | phosphorylation enrichment (FGFR1) | phosphorylation enrichment (Fer (mouse)) | phosphorylation enrichment (Fyn)
0.724 | 0.921 | 0.487 | QGCSIYKDFFR [PLA2G2D_Y82_YF] | 6.61 | 1.44 | 1.11 | 1.18 | 1.28 | 2.25 | 1.74 | 1.86 | 0.998 | 2.14 | 0.721 | 0.774 | 3.19
0.562 | 0.862 | 0.526 | ATYRGYDSDNP [MMUT_Y146_H143Y] | 0.626 | 0.742 | 0.427 | 0.431 | 0.543 | 0.658 | 0.751 | 0.444 | 0.365 | 0.476 | 0.453 | 0.409 | 0.528
0.729 | 0.766 | 0.482 | ADKSAYLMGPN [MYH7_Y386_L390P] | 0.631 | 0.636 | 0.386 | 0.391 | 0.545 | 0.7 | 0.637 | 0.508 | 0.408 | 0.441 | 0.473 | 0.371 | 0.544
0.584 | 0.683 | 0.419 | GDGRFYMMEAI [PGM1_Y66_K68M] | 0.88 | 1.04 | 0.569 | 0.553 | 0.731 | 1.16 | 1.26 | 0.459 | 0.46 | 0.735 | 0.511 | 0.539 | 0.51
0.839 | 0.808 | 0.644 | DKANRYFSPNV [PTEN_Y336_F341V] | 0.388 | 0.446 | 0.297 | 0.394 | 0.504 | 0.412 | 0.544 | 0.376 | 0.354 | 0.486 | 0.355 | 0.363 | 0.378
0.6 | 0.77 | 0.44 | CENNRYGMGTS [PDHA1_Y227] | 0.517 | 0.991 | 0.686 | 0.606 | 0.726 | 0.999 | 1.36 | 0.555 | 0.397 | 0.715 | 0.548 | 0.538 | 0.518
0.802 | 0.894 | 0.591 | TNLVPYPCIHF [TUBA1A_Y262_R264C] | 0.519 | 0.975 | 0.599 | 0.557 | 0.66 | 0.753 | 0.96 | 0.534 | 0.578 | 0.646 | 0.546 | 0.517 | 0.492
0.723 | 0.991 | 0.679 | LPHVIYCRLWR [SMAD2_Y128] | 2.05 | 1.05 | 1.76 | 0.758 | 0.555 | 0.822 | 0.814 | 2.31 | 0.871 | 1.47 | 0.414 | 0.434 | 1.66
0.578 | 0.732 | 0.59 | LNSFIYSLRNR [OR1A1_Y288_P285S] | 4.01 | 1.3 | 0.617 | 0.653 | 0.671 | 1.02 | 2.02 | 3.1 | 0.733 | 0.866 | 0.618 | 0.693 | 2.42
0.533 | 0.885 | 0.445 | LPPGTYPSDFT [UNC5B_Y511_A516T] | 0.697 | 1.58 | 0.694 | 0.536 | 0.85 | 0.571 | 1.25 | 0.613 | 1.04 | 1.78 | 0.717 | 0.403 | 0.82
0.908 | 0.931 | 1.91 | EAEPYYCSLRD [NPHS1_Y1139_R1140C] | 4.11 | 1.78 | 1.17 | 1.21 | 1.31 | 1.33 | 1.43 | 2.94 | 2.28 | 1.62 | 1.34 | 1.85 | 3.37
1.4 | 1.33 | 1.11 | NHFKICNLCAE [PTEN_Y68_Y68C_YF] | 0.486 | 0.609 | 0.461 | 0.468 | 0.544 | 0.682 | 0.687 | 0.413 | 0.484 | 0.75 | 0.401 | 0.4 | 0.415
2.02 | 2.2 | 1.75 | LSCVIYVILRK [PMP22_Y153_G150C] | 1.06 | – | – | – | – | 1.83 | – | – | – | 1.39 | – | – | –
